Experimental data from PMC7335352.

Columns and labels:
[1] = target: condensin I holocomplex (CI) (Homo sapiens, UniProt O95347;Q9NTJ3;Q15021;Q9BPX3;Q15003 1-1197;1-1288;1-1401;1-1015;1-741); assay: fluorescence polarization; no ATP; 75 mM NaCl; FP: 20 mM Tris pH 7.5, 75 mM NaCl, 2.5% glycerol, 1 mM DTT, room temp, 50 nM DNA; EMSA: 20 mM HEPES pH 8, 300 mM KCl, 5 mM MgCl2, 1 mM DTT, 10% glycerol, on ice; curtains: 40 mM Tris-HCl pH 7.5, 125 mM NaCl, 5 mM MgCl2, 1 mM DTT, 0.5 mg/mL BSA, 37 C; settings: protein: recombinant; tags: 6xHis-SMC4; CAP-H 2xStrep; copies: 1;1;1;1;1; label: 6-FAM on reverse strand; blunt
[2] = target: condensin II holocomplex (CII) (Homo sapiens, UniProt O95347;Q9NTJ3;P42695;Q86XI2;Q6IBW4 1-1197;1-1288;1-1498;1-1143;1-605); assay: as above; settings: protein: recombinant; tags: 6xHis-SMC4; CAP-H2 2xStrep; copies: 1;1;1;1;1; label: 6-FAM on reverse strand; blunt

B1: 30-bp dsDNA, 6-FAM (dsDNA)
DNA 1: CTGTCACACCCTGTCACACCTGTCACAC
DNA 2: GTGTGACAGGTGTGACAGGGTGTGACAG
Kd [1]: 3000 ± 300 nM
Kd [2]: 1200 ± 100 nM
